From US20090275081A1

Experiments:
[1] = biological target: carcinoembryonic antigen (CEA) on LS174T-CEA+ human colon carcinoma cells (human) (UniProt P06731); experiment: flow cytometry on live LS174T-CEA+ cells, detected with Alexa Fluor 488 streptavidin; percent positive staining
[2] = biological target: carcinoembryonic antigen (CEA) on LS174T-CEA+ human colon carcinoma cells (human) (UniProt P06731); experiment: flow cytometry on live LS174T-CEA+ cells, detected with Qdot655SA; percent positive staining
[3] = biological target: streptavidin agarose beads (ImmunoPure streptavidin coated beads, Pierce) (UniProt P22629); experiment: pull-down of 3.5 ug purified protein on streptavidin agarose beads, Western blot with SA HRP
Chain of UniProt P22629 (P22629 37-163 limits assumed): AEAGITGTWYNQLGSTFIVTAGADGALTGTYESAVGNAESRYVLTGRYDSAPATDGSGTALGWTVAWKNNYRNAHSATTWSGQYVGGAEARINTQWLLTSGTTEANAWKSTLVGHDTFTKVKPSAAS

[4] = biological target: streptavidin agarose beads (ImmunoPure streptavidin coated beads, Pierce) (UniProt P22629); experiment: pull-down on streptavidin agarose beads, Western blot

Chain of UniProt P06731 (P06731 35-702): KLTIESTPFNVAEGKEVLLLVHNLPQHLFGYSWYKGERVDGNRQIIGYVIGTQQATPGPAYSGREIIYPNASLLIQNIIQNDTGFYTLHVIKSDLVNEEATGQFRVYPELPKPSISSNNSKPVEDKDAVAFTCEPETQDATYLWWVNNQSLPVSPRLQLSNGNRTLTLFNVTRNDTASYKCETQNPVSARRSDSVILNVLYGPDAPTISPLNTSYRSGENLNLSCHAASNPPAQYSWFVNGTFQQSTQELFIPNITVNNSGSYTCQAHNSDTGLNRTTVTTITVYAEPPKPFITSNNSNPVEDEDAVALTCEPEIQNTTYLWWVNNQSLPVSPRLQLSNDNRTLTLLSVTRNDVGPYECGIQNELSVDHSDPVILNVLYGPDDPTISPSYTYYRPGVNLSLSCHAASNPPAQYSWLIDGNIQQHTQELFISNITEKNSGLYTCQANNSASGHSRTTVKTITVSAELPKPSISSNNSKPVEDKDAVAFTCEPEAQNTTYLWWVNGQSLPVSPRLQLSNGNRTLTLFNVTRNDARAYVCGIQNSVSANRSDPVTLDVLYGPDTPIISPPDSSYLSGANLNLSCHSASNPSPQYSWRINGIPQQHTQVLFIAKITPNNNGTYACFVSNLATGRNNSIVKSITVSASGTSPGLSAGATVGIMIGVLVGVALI

| LS174T binding (%), Streptavidin Alexa [1] [%] | LS174T binding (%), Qdot streptavidin [2] [%] | Binding with streptavidin agarose (%) [3] [%] | percent unbound [4] [%] | Substance |
| --- | --- | --- | --- | --- |
| 11.7 | 17.7 | 95 | – | Db-BD123 (biotinylated anti-CEA T84.66 diabody fused to the 123 aa biotin acceptor domain of P. shermanii) |
| 56 | 41 | 90 | 10 | Db-BP15-His (biotinylated anti-CEA T84.66 diabody with 15 aa biotin acceptor peptide followed by 6xHis tag) |
